The RNAGym collection of RNA variant scans (doi:10.7554/elife.90254)

B1: LINE1-mini (parent)
chain: GGCAGAGCUCAACACAGCGUGGCAAAGUGGCUGUGGCUAGACUGCC

Variants of: B1
Assay: self-cleavage, relative activity (ratio to wild type); higher = more cleavage; in vitro, sequencing; the parent is a self-cleaving ribozyme

Row | Variant | self-cleavage
1 | GGCAGAGCUCAACACAGCGUCGCAAAGUAGCUGUGGCUAGACUGCC [G21C G29A] | 0.5
2 | GGCAGAGCUCAACACAGCGUCGCAAAGUCGCUGUGGCUAGACUGCC [G21C G29C] | 0.55
3 | GGCAGAGCUCAACACAGCGUCGCAAAGUUGCUGUGGCUAGACUGCC [G21C G29U] | 0.48
4 | GGCAGAGCUCAACACAGCGUCGCAAAGUGGCUGUGGCUAGACUCCC [G21C G44C] | 0.4
5 | GGCAGAGCUCAACACAGCGUCGCAAAGUGGCUGUGGCUAGACUACC [G21C G44A] | 0.34
6 | GGCAGAGCUCAACACAGCGUCGCAAAGUGGCUGUGGCUAGACUUCC [G21C G44U] | 0.28
7 | GGCAGAGCUCAACACAGCGUCGCAAAGAGGCUGUGGCUAGACUGCC [G21C U28A] | 0.3
8 | GGCAGAGCUCAACACAGCGUCGCAAAGGGGCUGUGGCUAGACUGCC [G21C U28G] | 0.45
9 | GGCAGAGCUCAACACAGCGUCGCAAAGCGGCUGUGGCUAGACUGCC [G21C U28C] | 1.39
10 | GGCAGAGCUCAACACAGCGUUGUAAAGUGGCUGUGGCUAGACUGCC [G21U C23U] | 1.38
11 | GGCAGAGCUCAACACAGCGUUGAAAAGUGGCUGUGGCUAGACUGCC [G21U C23A] | 1.24
12 | GGCAGAGCUCAACACAGCGUUGGAAAGUGGCUGUGGCUAGACUGCC [G21U C23G] | 0.9
13 | GGCAGAGCUCAACACAGCGUCGCAAAGUGGCUCUGGCUAGACUGCC [G21C G33C] | 0.05
14 | GGCAGAGCUCAACACAGCGUCGCAAAGUGGCUUUGGCUAGACUGCC [G21C G33U] | 0.11
15 | GGCAGAGCUCAACACAGCGUCGCAAAGUGGCUAUGGCUAGACUGCC [G21C G33A] | 0.8
16 | GGCAGAGCUCAACACAGCGUCGCAAAGUGGCUGAGGCUAGACUGCC [G21C U34A] | 0.12
17 | GGCAGAGCUCAACACAGCGUCGCAAAGUGGCUGGGGCUAGACUGCC [G21C U34G] | 0.24
18 | GGCAGAGCUCAACACAGCGUCGCAAAGUGGCUGCGGCUAGACUGCC [G21C U34C] | 0.19
19 | GGCAGAGCUCAACACAGCGUCGAAAAGUGGCUGUGGCUAGACUGCC [G21C C23A] | 0.43

Row | Variant | self-cleavage
20 | GGCAGAGCUCAACACAGCGUCGGAAAGUGGCUGUGGCUAGACUGCC [G21C C23G] | 0.53
21 | GGCAGAGCUCAACACAGCGUCGUAAAGUGGCUGUGGCUAGACUGCC [G21C C23U] | 1.27
22 | GGCAGAGCUCAACACAGCGUCGCAAAGUGGCUGUGGAUAGACUGCC [G21C C37A] | 0.02
23 | GGCAGAGCUCAACACAGCGUCGCAAAGUGGCUGUGGGUAGACUGCC [G21C C37G] | 0.05
24 | GGCAGAGCUCAACACAGCGUCGCAAAGUGGCUGUGGUUAGACUGCC [G21C C37U] | 0.01
25 | GGCAGAGCUCAACACAGCGUCGCAAAGUGGCUGUGGCAAGACUGCC [G21C U38A] | 0.21
26 | GGCAGAGCUCAACACAGCGUCGCAAAGUGGCUGUGGCCAGACUGCC [G21C U38C] | 0.48
27 | GGCAGAGCUCAACACAGCGUCGCAAAGUGGCUGUGGCGAGACUGCC [G21C U38G] | 0.02
28 | GGCAGAGCUCAACACAGCGUCGCAAAGUGGUUGUGGCUAGACUGCC [G21C C31U] | 0.3
29 | GGCAGAGCUCAACACAGCGUCGCAAAGUGGAUGUGGCUAGACUGCC [G21C C31A] | 0.19
30 | GGCAGAGCUCAACACAGCGUCGCAAAGUGGGUGUGGCUAGACUGCC [G21C C31G] | 0.09
31 | GGCAGAGCUCAACACAGCGUCGCAAAGUGGCUGUGGCUAGACUGUC [G21C C45U] | 1.56
32 | GGCAGAGCUCAACACAGCGUCGCAAAGUGGCUGUGGCUAGACUGGC [G21C C45G] | 0.07
33 | GGCAGAGCUCAACACAGCGUCGCAAAGUGGCUGUGGCUAGACUGAC [G21C C45A] | 0.49
34 | GGCAGAGCUCAACACAGCGUUACAAAGUGGCUGUGGCUAGACUGCC [G21U G22A] | 1.03
35 | GGCAGAGCUCAACACAGCGUUUCAAAGUGGCUGUGGCUAGACUGCC [G21U G22U] | 1.4
36 | GGCAGAGCUCAACACAGCGUUCCAAAGUGGCUGUGGCUAGACUGCC [G21U G22C] | 1.71
37 | GGCAGAGCUCAACACAGCGUUGCAAAGUGGCUGUGGCUAGAGUGCC [G21U C42G] | 0.04
38 | GGCAGAGCUCAACACAGCGUUGCAAAGUGGCUGUGGCUAGAAUGCC [G21U C42A] | 0.23

Row | Variant | self-cleavage
39 | GGCAGAGCUCAACACAGCGUUGCAAAGUGGCUGUGGCUAGAUUGCC [G21U C42U] | 0.53
40 | GGCAGAGCUCAACACAGCGUUGCACAGUGGCUGUGGCUAGACUGCC [G21U A25C] | 1.44
41 | GGCAGAGCUCAACACAGCGUUGCAGAGUGGCUGUGGCUAGACUGCC [G21U A25G] | 1.23
42 | GGCAGAGCUCAACACAGCGUUGCAUAGUGGCUGUGGCUAGACUGCC [G21U A25U] | 1.88
43 | GGCAGAGCUCAACACAGCGUUGCAAAGUGGCUGUGGCUGGACUGCC [G21U A39G] | 0.08
44 | GGCAGAGCUCAACACAGCGUUGCAAAGUGGCUGUGGCUUGACUGCC [G21U A39U] | 0.63
45 | GGCAGAGCUCAACACAGCGUUGCAAAGUGGCUGUGGCUCGACUGCC [G21U A39C] | 0.28
46 | GGCAGAGCUCAACACAGCGUUGCAAAGUGGCUGUGGCUAGACUGCA [G21U C46A] | 1.14
47 | GGCAGAGCUCAACACAGCGUUGCAAAGUGGCUGUGGCUAGACUGCG [G21U C46G] | 1.29
48 | GGCAGAGCUCAACACAGCGUUGCAAAGUGGCUGUGGCUAGACUGCU [G21U C46U] | 1.13
49 | GGCAGAGCUCAACACAGCGUCGCAAAUUGGCUGUGGCUAGACUGCC [G21C G27U] | 0.84
50 | GGCAGAGCUCAACACAGCGUCGCAAACUGGCUGUGGCUAGACUGCC [G21C G27C] | 0.52
51 | GGCAGAGCUCAACACAGCGUCGCAAAAUGGCUGUGGCUAGACUGCC [G21C G27A] | 0.84
52 | GGCAGAGCUCAACACAGCGUCGCAAAGUGGCUGUGGCUAGAAUGCC [G21C C42A] | 0.19
53 | GGCAGAGCUCAACACAGCGUCGCAAAGUGGCUGUGGCUAGAUUGCC [G21C C42U] | 0.36
54 | GGCAGAGCUCAACACAGCGUUGCAAAGUGGCUGUGGCUAGACUGCC [G21U] | 1.06
55 | GGCAGAGCUCAACACAGCGUUGCAAACUGGCUGUGGCUAGACUGCC [G21U G27C] | 0.54
56 | GGCAGAGCUCAACACAGCGUUGCAAAAUGGCUGUGGCUAGACUGCC [G21U G27A] | 0.45
